Results on six molecules are retold here after PMC10397247.

Holding throughout (assay): two-hybrid library CCNG1;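 note: natural log of median RNA to DNA barcode read ratio; higher means stronger binding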
Experiment [1] concerns the target T1, 4H470-bA.
T1 chain: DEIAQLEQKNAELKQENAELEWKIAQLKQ

In experiment [2] the target is T2, 4H3961-bA.
T2 chain: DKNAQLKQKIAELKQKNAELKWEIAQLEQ
The settings on record: mean of both orientations.

The target of experiment [3] is T3, O2-bS.
T3 chain: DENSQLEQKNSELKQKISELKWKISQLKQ

Experiment [4] concerns the target T4, 4H741-bN.
T4 chain: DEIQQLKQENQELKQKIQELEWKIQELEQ

In experiment [5] the target is T5, 4H2692-bH.
T5 chain: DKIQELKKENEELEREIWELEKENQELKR

Experiment [6] has as its target T6, 4H492-bH.
T6 chain: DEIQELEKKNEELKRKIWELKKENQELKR

Experiment [7] concerns the target T7, 4H2839-bH.
T7 chain: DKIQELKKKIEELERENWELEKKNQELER

For experiment [8], the target named is T8, 4H2915-bH.
T8 chain: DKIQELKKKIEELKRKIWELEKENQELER

The target of experiment [9] is T9, 4H2717-bH.
T9 chain: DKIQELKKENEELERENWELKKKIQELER

Experiment [10] addresses T10, 4H319-bH.
T10 chain: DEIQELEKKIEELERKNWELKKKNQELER

Experiment [11] addresses T11, 4H477-bH.
T11 chain: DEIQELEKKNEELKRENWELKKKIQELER

The target in experiment [12] is T12, 4H3057-bH.
T12 chain: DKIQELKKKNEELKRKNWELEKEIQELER

For experiment [13], the target named is T13, 4H40-bH.
T13 chain: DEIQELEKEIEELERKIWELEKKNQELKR

Experiment [14] addresses T14, 4H3277-bH.
T14 chain: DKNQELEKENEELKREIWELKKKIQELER

In experiment [15] the target is T15, 4H741-bH.
T15 chain: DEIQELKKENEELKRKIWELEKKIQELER

Experiment [16] concerns the target T16, 4H348-bH.
T16 chain: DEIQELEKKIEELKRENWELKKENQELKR

Experiment [17] deals with T17, 4H607-bN.
T17 chain: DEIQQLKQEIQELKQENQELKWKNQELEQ

Experiment [18] concerns the target T18, 4H687-bN.
T18 chain: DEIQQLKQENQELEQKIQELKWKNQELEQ

Experiment [19] concerns the target T19, 4H967-bN.
T19 chain: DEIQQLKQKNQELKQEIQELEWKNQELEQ

For experiment [20], the target named is T20, 4H855-bN.
T20 chain: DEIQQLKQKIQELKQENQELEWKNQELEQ

Experiment [21] deals with T21, 4H72-bN.
T21 chain: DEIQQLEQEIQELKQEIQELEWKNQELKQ

Experiment [22] deals with T22, 4H331-bN.
T22 chain: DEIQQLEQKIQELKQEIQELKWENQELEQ

Experiment [23] has as its target T23, 4H717-bN.
T23 chain: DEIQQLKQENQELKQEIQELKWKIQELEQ

The target in experiment [24] is T24, 4H683-bN.
T24 chain: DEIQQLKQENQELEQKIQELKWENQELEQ

The target in experiment [25] is T25, 4H908-bN.
T25 chain: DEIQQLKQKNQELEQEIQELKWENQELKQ

Experiment [26] has as its target T26, 4H4001-bN.
T26 chain: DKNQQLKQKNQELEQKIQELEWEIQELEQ

The target of experiment [27] is T27, 4H780-bN.
T27 chain: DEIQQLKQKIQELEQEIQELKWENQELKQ

Experiment [28] addresses T28, 4H3172-bN.
T28 chain: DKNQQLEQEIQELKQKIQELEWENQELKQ

For experiment [29], the target named is T29, 4H883-bN.
T29 chain: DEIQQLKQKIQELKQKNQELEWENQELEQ

In experiment [30] the target is T30, 4H918-bN.
T30 chain: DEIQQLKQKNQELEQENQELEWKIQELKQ

Experiment [31] deals with T31, 4H4073-bN.
T31 chain: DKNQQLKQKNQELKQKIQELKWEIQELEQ

Experiment [32] deals with T32, 4H568-bN.
T32 chain: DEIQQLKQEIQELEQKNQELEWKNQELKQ

For experiment [33], the target named is T33, 4H3185-bN.
T33 chain: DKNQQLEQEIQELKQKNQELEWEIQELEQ

For experiment [34], the target named is T34, 4H3926-bN.
T34 chain: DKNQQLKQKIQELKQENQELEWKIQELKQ

In experiment [35] the target is T35, 4H3855-bN.
T35 chain: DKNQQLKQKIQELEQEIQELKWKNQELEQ

Experiment [36] has as its target T36, 4H3817-bH.
T36 chain: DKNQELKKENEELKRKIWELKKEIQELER

In experiment [37] the target is T37, 4H3129-bH.
T37 chain: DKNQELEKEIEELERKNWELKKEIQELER

In experiment [38] the target is T38, 4H968-bN.
T38 chain: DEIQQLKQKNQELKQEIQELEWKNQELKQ

The target in experiment [39] is T39, 4H457-bN.
T39 chain: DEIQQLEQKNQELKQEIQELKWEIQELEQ

In experiment [40] the target is T40, 4H754-bN.
T40 chain: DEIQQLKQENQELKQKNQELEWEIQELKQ

Experiment [41] addresses T41, 4H797-bN.
T41 chain: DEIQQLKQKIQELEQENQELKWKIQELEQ

For experiment [42], the target named is T42, 4H454-bN.
T42 chain: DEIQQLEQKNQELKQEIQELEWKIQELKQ

The target of experiment [43] is T43, 4H3354-bN.
T43 chain: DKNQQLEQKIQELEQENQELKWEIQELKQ

Experiment [44] addresses T44, 4H346-bN.
T44 chain: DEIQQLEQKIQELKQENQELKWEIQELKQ

Experiment [45] addresses T45, 4H338-bN.
T45 chain: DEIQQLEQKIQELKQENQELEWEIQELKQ

For experiment [46], the target named is T46, 4H3782-bN.
T46 chain: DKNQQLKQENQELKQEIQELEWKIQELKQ

The target of experiment [47] is T47, 4H3427-bN.
T47 chain: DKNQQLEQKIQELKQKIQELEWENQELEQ

Experiment [48] concerns the target T48, 4H3112-bN.
T48 chain: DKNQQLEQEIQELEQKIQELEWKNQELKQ

In experiment [49] the target is T49, 4H575-bN.
T49 chain: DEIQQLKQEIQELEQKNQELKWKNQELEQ

In experiment [50] the target is T50, 4H953-bN.
T50 chain: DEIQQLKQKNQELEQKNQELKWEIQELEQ

Experiment [51] concerns the target T51, 4H4001-bH.
T51 chain: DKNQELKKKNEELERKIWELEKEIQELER

Experiment [52] addresses T52, 4H3843-bH.
T52 chain: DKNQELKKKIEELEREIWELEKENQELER

Experiment [53] deals with T53, 4H3189-bH.
T53 chain: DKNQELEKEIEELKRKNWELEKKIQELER

Experiment [54] concerns the target T54, 4H331-bH.
T54 chain: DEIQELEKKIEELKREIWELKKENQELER

For experiment [55], the target named is T55, 4H3606-bH.
T55 chain: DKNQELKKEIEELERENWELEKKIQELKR

Experiment [56] deals with T56, 4H797-bH.
T56 chain: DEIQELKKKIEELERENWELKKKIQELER

Experiment [57] has as its target T57, 4H2697-bH.
T57 chain: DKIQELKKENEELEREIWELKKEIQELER

For experiment [58], the target named is T58, 4H687-bH.
T58 chain: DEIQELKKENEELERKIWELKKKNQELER

Experiment [59] deals with T59, 4H3782-bH.
T59 chain: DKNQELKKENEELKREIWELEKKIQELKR

Experiment [60] deals with T60, 4H462-bH.
T60 chain: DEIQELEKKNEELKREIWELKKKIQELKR

In experiment [61] the target is T61, 4H370-bH.
T61 chain: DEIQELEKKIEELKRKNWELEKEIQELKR

Experiment [62] addresses T62, 4H883-bH.
T62 chain: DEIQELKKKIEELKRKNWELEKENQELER

Experiment [63] addresses T63, 4H72-bH.
T63 chain: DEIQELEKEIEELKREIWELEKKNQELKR

In experiment [64] the target is T64, 4H967-bH.
T64 chain: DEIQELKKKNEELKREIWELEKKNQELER

The target in experiment [65] is T65, 4H607-bH.
T65 chain: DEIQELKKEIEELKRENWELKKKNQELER

The target of experiment [66] is T66, 4H568-bH.
T66 chain: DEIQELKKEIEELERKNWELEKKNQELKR

The target in experiment [67] is T67, 4H918-bH.
T67 chain: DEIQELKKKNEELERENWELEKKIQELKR

Experiment [68] deals with T68, 4H953-bH.
T68 chain: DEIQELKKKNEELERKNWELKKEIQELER

On to DEIAQLEQKNAELKQENAELEWKIAQLKQ [4H470-bA], for which the interaction score in experiment [1] came to 0.201.

Turning to DKNAQLKQKIAELKQKNAELKWEIAQLEQ [4H3961-bA], the interaction score was -1.09 in experiment [2] and -0.153 in experiment [1].

In the case of DEIQQLKQENQELKQKIQELEWKIQELEQ [4H741-bN], the interaction score in experiment [3] is -3.38; in [4], 1.19.

For the molecule DKIQELKKENEELEREIWELEKENQELKR [4H2692-bH], the interaction score in experiment [5] is 0.733; in [6], 1.54; in experiment [7], -0.447; in experiment [8] it was 0.971; in experiment [9], -0.125; in experiment [10], -1.1. In addition, the interaction score was -0.436 in experiment [11]; -0.0522 in [12]; 0.218 in [13]; -0.368 in experiment [14]; -1.04 in experiment [15]; -0.787 in experiment [16].

Turning to DKNQQLEQEIQELEQKIQELEWKNQELKQ [4H3112-bN], the interaction score is 0.634 in experiment [17]; -1.66 in experiment [18]; -1.11 in experiment [19]; 0.606 in experiment [20]; -0.5 in experiment [21]; -0.918 in experiment [22]. The interaction score in [23] is -1.88; in experiment [24], 0.347; in experiment [25], 0.308; in experiment [26] it was -0.255; in experiment [27], -0.0911; in experiment [28], 0.00481. The interaction score in [29] was 1.54; in experiment [30], 0.0994; in [31], -0.28; in experiment [32], 0.078; in experiment [33], -1.11; in experiment [34], 0.154. Besides, the interaction score in experiment [35] was -0.962; in experiment [36] it was -0.521; in experiment [37] it was -0.762; in experiment [38], -0.158; in experiment [39] it was -0.526; in experiment [40] it was -1.34. The interaction score was -0.676 in [41]; 0.745 in experiment [42]; 0.377 in [43]; 0.282 in experiment [44]; -0.816 in experiment [45]; -0.541 in [46]. For the same molecule, the interaction score in experiment [47] is 0.996; in [48], -0.426; in experiment [49] it was -1.34; in [50], 0.0741.

On to DKIQELKKENEELEREIWELKKEIQELER [4H2697-bH], for which the interaction score is -0.578 in experiment [51]; -0.103 in experiment [52]; -0.0723 in experiment [53]; 0.0266 in [54]; -1.34 in experiment [55]; -0.611 in experiment [56]. Moreover, the interaction score in [57] is 0.402; in experiment [58] it was -0.768; in experiment [59], 0.502; in experiment [60], -0.915; in experiment [61], -0.895; in experiment [62] it was -0.628. The interaction score was -1.97 in experiment [63]; 0.26 in experiment [64]; -0.619 in experiment [65]; -1.4 in experiment [66]; -0.619 in experiment [67]; -0.201 in [68].
